Reference: US20240417469A1 (CONCEPT TO MEDICINE BIOTECH, published 2024)
Residue numbers refer to the chain shown, from its start. Values joined by “and” are separate entries in the source; they are usually repeats but may differ in a detail not shown here. Equal entries are not always repeated. Where two headings read alike, the source gives them in different places.

Tests used:
[1] = target: T1, cynomolgus CD3 on cynomolgus PBMC (cynomolgus, UniProt Q95LI5 22-198; Q95LI8 22-171; Q95LI7 23-181); assay: FACS on cynomolgus PBMC, PE anti-human IgG Fc secondary, geometric mean fluorescence
T1 construct: whole, on cells; Native CD3 complex on cynomolgus T cells; also called cyno PBMC; cynoPBMCs

[2] = target: T2, recombinant CD3D&E protein (human CD3-his tag) (human, UniProt P04234 22-105; P07766 23-126, limits assumed); assay: SPR Biacore, Ab captured on Protein A
T2 construct: Analyte in Biacore; also called CD3D&E-His; CD3d&ε-His

[3] = target: T3, cynomolgus CD3 protein (cynomolgus); assay: ELISA, plate-coated CD3
T3 construct: ELISA coating protein

[4] = target: T4, human CD3 protein (human, UniProt P07766 23-126; P04234 22-105); assay: ELISA, plate-coated CD3
T4 construct: ELISA coating protein; also called Human CD3D & CD3E Heterodimer Protein

[5] = target: T4, human CD3 protein; assay: ELISA, plate-coated CD3; remark: listed apart in the source
[6] = target: T2, recombinant CD3D&E protein (human …); assay: SPR Biacore, Ab captured on Protein A; remark: listed apart in the source
[7] = target: T5, human CD3 on cells (human PBMC; Jurkat TCR/CD3 NFAT reporter cells) (human, UniProt P07766 23-207; P04234 22-171; P09693 23-182); assay: cell-based or functional assay
[8] = target: T5, human CD3 on cells (human PBMC; Jurkat …); assay: cell-based or functional assay; remark: listed apart in the source
[9] = target: T5, human CD3 on cells (human PBMC; Jurkat …); assay: FACS on human PBMC, PE anti-human IgG Fc secondary, geometric mean fluorescence
Wherever Emax is given: unit not given here.

T5 sequence (P07766 23-207, chain 1 of 3): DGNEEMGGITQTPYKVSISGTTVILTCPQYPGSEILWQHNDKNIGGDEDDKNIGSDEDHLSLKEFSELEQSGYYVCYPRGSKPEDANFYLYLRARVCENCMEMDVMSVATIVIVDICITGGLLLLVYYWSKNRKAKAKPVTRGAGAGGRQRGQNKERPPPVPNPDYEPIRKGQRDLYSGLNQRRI
T5 sequence (P04234 22-171, chain 2 of 3): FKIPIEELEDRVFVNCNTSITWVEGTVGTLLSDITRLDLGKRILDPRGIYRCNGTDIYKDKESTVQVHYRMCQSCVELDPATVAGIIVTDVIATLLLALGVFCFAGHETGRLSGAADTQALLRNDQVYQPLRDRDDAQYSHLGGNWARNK
T5 sequence (P09693 23-182, chain 3 of 3): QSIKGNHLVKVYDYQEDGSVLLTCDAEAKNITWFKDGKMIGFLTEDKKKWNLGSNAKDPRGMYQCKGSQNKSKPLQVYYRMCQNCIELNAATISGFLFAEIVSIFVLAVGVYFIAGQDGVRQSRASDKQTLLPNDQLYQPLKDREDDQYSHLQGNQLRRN
T2 sequence (P04234 22-105 limits assumed, chain 1 of 2): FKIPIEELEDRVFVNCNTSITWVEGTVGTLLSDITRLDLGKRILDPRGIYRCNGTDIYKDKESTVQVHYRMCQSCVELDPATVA
T2 sequence (P07766 23-126 limits assumed, chain 2 of 2): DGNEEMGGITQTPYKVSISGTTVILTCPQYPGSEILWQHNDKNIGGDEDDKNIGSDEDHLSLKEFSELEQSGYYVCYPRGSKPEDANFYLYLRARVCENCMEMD
T3 sequence (Q95LI5 22-117, chain 1 of 2): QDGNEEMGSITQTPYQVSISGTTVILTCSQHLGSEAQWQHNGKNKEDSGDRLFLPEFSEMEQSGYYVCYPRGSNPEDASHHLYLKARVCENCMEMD
T3 sequence (Q95LI8 22-105, chain 2 of 2, further chain): as the sequence (P04234 22-105 limits assumed, chain 1 of 2) above, with I5V, N15K, I20V, S32T, D33N, I34N, T64A, S74N, V83L counted along it
T1 sequence (Q95LI5 22-198, chain 1 of 3): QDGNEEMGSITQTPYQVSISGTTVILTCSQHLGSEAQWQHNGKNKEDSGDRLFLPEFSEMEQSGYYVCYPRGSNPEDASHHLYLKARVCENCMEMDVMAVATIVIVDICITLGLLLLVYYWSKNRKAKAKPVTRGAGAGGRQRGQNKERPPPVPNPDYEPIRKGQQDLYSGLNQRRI
T1 sequence (Q95LI8 22-171, chain 2 of 3): as the sequence (P04234 22-171, chain 2 of 3) above, with I5V, N15K, I20V, S32T, D33N, I34N, T64A, S74N, V83L, H141R counted along it
T1 sequence (Q95LI7 23-181, chain 3 of 3): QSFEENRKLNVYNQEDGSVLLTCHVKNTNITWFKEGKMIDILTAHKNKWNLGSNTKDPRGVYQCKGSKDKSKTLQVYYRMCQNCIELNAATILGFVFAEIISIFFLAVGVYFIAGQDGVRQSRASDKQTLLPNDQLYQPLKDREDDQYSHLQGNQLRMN
T4 sequence (P07766 23-126 limits assumed, chain 1 of 2): as the sequence (P07766 23-126 limits assumed, chain 2 of 2) above
T4 sequence (P04234 22-105 limits assumed, chain 2 of 2): as the sequence (P04234 22-105 limits assumed, chain 1 of 2) above

B1: 192A7B9 chimeric mAb (antibody, V domains shown)
VH: QVQLKESGPGLVQPSQTLSLNCTVSGFSLTSYNVHWVRQPPGKGLEWMGRMRYNGDTSYNSALKSRLSISRDTSKNQVFLKMNSLQTDDTGTYYCTRGPRGGYYSALFDYWGQGVMVTVSS
VL: DIQMTQSPSFLSASVGDRVTINCKASQNINRYLNWYQQKLGDAPKVLISIANSLQTGIPSRFSGSGSGTDFTLTISSLQPEDVATYFCLQHNSWYTFGAGTKLELK
notes: Chimeric mAb
- binding result [1]: binds
- Kd [2]: 6.34 nM
- koff [2]: 0.000442 s⁻¹
- kon [2]: 69700 M⁻¹ s⁻¹
- EC50 [3]: 2.16 ng/mL
- EC50 [4]: 1.91 ng/mL
- EC50 [5]: 2.53 ng/mL and 2.85 ng/mL and 2.16 ng/mL and 2.3 ng/mL
- Kd [6]: 6.34 nM
- koff [6]: 0.000442 s⁻¹
- kon [6]: 69700 M⁻¹ s⁻¹

B2: 155A9B1 chimeric mAb (antibody, V domains shown)
VH: B1 VH with N21T, M51V, V78A, T87I, R100Y, Y103S, Y104S, S105E, A106P
VL: DIKMTQSPSFLSASVGDRVTINCKASQNINKYLNWFQQKLGEAPRLLIYTTNNLQTGIPSRFSGSGSGTDFTLTISSLQPEDVATYFCLQHNSGYTFGAGTKLELK
notes: Chimeric mAb
- binding result [1]: binds
- Kd [2]: 36.1 nM
- koff [2]: 0.00207 s⁻¹
- kon [2]: 57200 M⁻¹ s⁻¹
- EC50 [3]: 2.33 ng/mL
- EC50 [4]: 2.15 ng/mL
- EC50 [5]: 2.7 ng/mL and 2.54 ng/mL and 2.34 ng/mL
- Kd [6]: 36.1 nM
- koff [6]: 0.00207 s⁻¹
- kon [6]: 57200 M⁻¹ s⁻¹

B3: 153A6B1 chimeric mAb (antibody, V domains shown)
VH: B1 VH with N21T, V34I, M51I, N83S, R100Y, Y103S, Y104R, S105E, A106P
VL: B2 VL with S14A, A25T, E42A, R45K, N92G
notes: Chimeric mAb of the hybridoma clone; also called 153A6B1C8
- binding result [1]: binds
- Kd [2]: 8.69 nM
- koff [2]: 0.000694 s⁻¹
- kon [2]: 79900 M⁻¹ s⁻¹
- EC50 [3]: 2.88 ng/mL
- EC50 [4]: 2.79 ng/mL
- EC50 [5]: 3.42 ng/mL and 2.91 ng/mL and 2.74 ng/mL
- Kd [6]: 8.69 nM
- koff [6]: 0.000694 s⁻¹
- kon [6]: 79900 M⁻¹ s⁻¹

B4: Hu155A9B1-3 (antibody, V domains shown)
VH: EVQLQESGPGLVKPSETLSLTCTVSGGSISSYNVHWVRQPPGKGLEWMGRVRYNGDTSYNSALKSRLTISRDTSKNQFSLKLSSVTAADTAVYYCARGPYGGSSEPLFDYWGQGTMVTVSS
VL: DIQMTQSPSSLSASVGDRVTITCKASQNINKYLNWYQQKPGKAPRLLIYTTNNLQTGVPSRFSGSGSGTDFTLTISSLQPEDFATYYCLQHNSGYTFGQGTKLEIK
notes: humanized mAb
- EC50 [5]: 32.2 ng/mL
- CD3-NFAT Activity by CD3 mAb [7]: ≤ 50 % SP34
- % of SP34 [8]: 12.8%
- Emax [8]: 648
- Kd [6]: 18 nM
- koff [6]: 0.00667 s⁻¹
- kon [6]: 370000 M⁻¹ s⁻¹

B5: Hu155A9B1-6 (antibody, V domains shown)
VH: B4 VH with G27F, I29L, S30T, F78A, A96T
VL: B4 VL
notes: humanized mAb
- EC50 [5]: 4.16 ng/mL
- CD3-NFAT Activity by CD3 mAb [7]: > 50 % SP34
- % of SP34 [8]: 84.8%
- Emax [8]: 4300
- Kd [6]: 62.1 nM
- koff [6]: 0.00593 s⁻¹
- kon [6]: 95400 M⁻¹ s⁻¹

B6: SP34 monoclonal antibody (antibody, human IgG1, lambda, N297A, V domains shown)
VH: EVQLVESGGGLVQPKGSLKLSCAASGFTFNTYAMNWVRQAPGKGLEWVARIRSKYNNYATYYADSVKDRFTISRDDSQSILYLQMNNLKTEDTAMYYCVRHGNFGNSYVSWFAYWGQGTLVTVSA
VL: QAVVTQESALTTSPGETVTLTCRSSTGAVTTSNYANWVQEKPDHLFTGLIGGTNKRAPGVPARFSGSLIGDKAALTITGAQTEDEAIYFCALWYSNLWVFGGGTKLTVLG
notes: also called SP34 (Biointron, B6762)
- binding result [1]: binds
- Kd [2]: 6.89 nM
- koff [2]: 0.00292 s⁻¹
- kon [2]: 424000 M⁻¹ s⁻¹
- EC50 [3]: 6.18 ng/mL
- EC50 [4]: 6.48 ng/mL
- % of SP34 [8]: 100%
- EC50 (read off the curve) [9]: ~1 nM
